Assay results taken from article PMC3627575.

B1: N25 (dsDNA)
DNA 1: TATACAAACCCCTTACCAATATCATA
DNA 2: ATATGATATTGGTAAGGGGTTTGTAT
B2: v1 (dsDNA)
DNA 1: AGGCACGCGTCCAGGCAACCGGG
DNA 2: TCCCGGTTGCCTGGACGCGTGCC
B3: dsS0mm (dsDNA)
DNA 1: GCGTCGAGACGC
DNA 2: GCGTCGAGACGC
B4: PRDIII-I (dsDNA)
DNA 1: GAGGAAAACTGAAAGGGAACTGAAA
DNA 2: TTTCAGTTCCCTTTCAGTTTTCCTC
B5: S0_x2 (dsDNA)
DNA 1: AGCGTCGAGACGCGCGTCGAGACGC
DNA 2: TGCGTCTCGACGCGCGTCTCGACGC
B6: v2 (dsDNA)
DNA 1: ATAACTGGGAGGCGACGCTGGCG
DNA 2: TCGCCAGCGTCGCCTCCCAGTTA

Assays:
[1] = target: T1, vIRF-1 DBD (vIRF-1 88-196) (Kaposi's sarcoma-associated herpesvirus …, UniProt F5HF68 88-196); assay: thermal stability shift assay
[2] = target: T1, vIRF-1 DBD (vIRF-1 88-196); assay: X-ray crystallography

T1 sequence (F5HF68 88-196): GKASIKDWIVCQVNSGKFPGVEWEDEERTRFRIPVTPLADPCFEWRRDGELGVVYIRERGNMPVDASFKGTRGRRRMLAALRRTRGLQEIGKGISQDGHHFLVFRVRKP

Binder	binding result [1]	binding result [2]
B1	binds	–
B2	binds	–
B3	–	binds
B4	binds	–
B5	binds	–
B6	binds	–
